# Test results from article PMC314469, “Protein Interaction Networks by Proteome Peptide Scanning” (PLoS Biology, 2004).
# T1: Yfr024 SH3 (LSB3_YEAST), P43603
# T1 chain: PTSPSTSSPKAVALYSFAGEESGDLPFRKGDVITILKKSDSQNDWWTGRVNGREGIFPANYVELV
# T2: Rvs167 SH3 (RV167_YEAST), P39743
# T2 chain: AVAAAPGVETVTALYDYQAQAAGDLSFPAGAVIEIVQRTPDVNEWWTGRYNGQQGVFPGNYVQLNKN
# T3: Boi1 SH3 (BOI1_YEAST), P38041
# T3 chain: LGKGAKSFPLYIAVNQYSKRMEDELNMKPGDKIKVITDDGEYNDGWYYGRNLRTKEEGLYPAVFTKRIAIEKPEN
# T4: Myo5 SH3 (MYO5_YEAST), Q04439
# T4 chain: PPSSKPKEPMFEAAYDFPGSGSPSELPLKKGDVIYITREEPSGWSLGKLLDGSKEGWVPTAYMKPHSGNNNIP
# T5: Yhr016c SH3 (YSC84_YEAST), P32793
# T5 chain: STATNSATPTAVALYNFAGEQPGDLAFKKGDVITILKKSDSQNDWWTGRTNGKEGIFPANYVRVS
# T6: Boi2 SH3 (BOI2_YEAST), P39969
# T6 chain: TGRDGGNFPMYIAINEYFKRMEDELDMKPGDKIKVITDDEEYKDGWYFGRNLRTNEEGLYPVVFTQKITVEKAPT
# How the values were obtained:
# Experiment in all cases: SPOT array
# [1] = molecular target: T1, Yfr024 SH3 (LSB3_YEAST), P43603
# [2] = molecular target: Sho1 SH3 (SHO1_YEAST), P40073
# Chain of Sho1 SH3 (SHO1_YEAST), P40073 (P40073 295-366): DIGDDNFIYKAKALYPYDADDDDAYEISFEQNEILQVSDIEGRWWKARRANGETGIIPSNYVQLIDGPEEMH
# [3] = molecular target: T2, Rvs167 SH3 (RV167_YEAST), P39743
# [4] = molecular target: T3, Boi1 SH3 (BOI1_YEAST), P38041
# [5] = molecular target: T4, Myo5 SH3 (MYO5_YEAST), Q04439
# [6] = molecular target: T5, Yhr016c SH3 (YSC84_YEAST), P32793
# [7] = molecular target: T6, Boi2 SH3 (BOI2_YEAST), P39969
Binder,"normalised SPOT signal, Boehringer light units (BLU); mean over the file's lines of this peptide [1]","normalised SPOT signal, Boehringer light units (BLU); mean over the file's lines of this peptide [2]","normalised SPOT signal, Boehringer light units (BLU); mean over the file's lines of this peptide [3]","normalised SPOT signal, Boehringer light units (BLU); mean over the file's lines of this peptide [4]","normalised SPOT signal, Boehringer light units (BLU); mean over the file's lines of this peptide [5]","normalised SPOT signal, Boehringer light units (BLU); mean over the file's lines of this peptide [6]","normalised SPOT signal, Boehringer light units (BLU); mean over the file's lines of this peptide [7]"
KDFSKNAPYNPSEV [YPR022C 111-124],0,42,63.7,76.6,143,59.1,53.8
KDKARGNPEKPPYW [YJL036W 14-27],63.5,50.3,67.1,247,59.9,19.5,15.2
KEFFRLTPNQPVGL [YOR168W 628-641],166,25.9,175,136,43.8,14.9,-0
KFDAKGRPIPPHPD [YJL042W 327-340],224,27.1,58.6,460,53.5,39.4,3.5
KFFKREYPDIPMIA [YMR190C 828-841],120,359,127,201,155,42.3,20.2
KGVLKEYPMRPYGS [YCR068W 315-328],1160,78.4,38.3,251,117,134,14
KHEPKKSPTTPALA [YDL220C 702-715],19.7,21.3,30.5,442,726,26.8,36.2
KIIKKSSPSVPKEE [YNL265C 154-167],191,1230,176,389,242,12.1,0.6
KITKKLGPKLPKAS [YNL297C 1291-1304],490,47.2,187,198,681,43.5,21
KIVERGPPYPPDLR [YDR464W 649-662],93.1,14.8,102,74.9,138,20.3,4.7
KIVRRDYPSTPVIV [YOR019W 147-160],267,33.5,206,235,366,17.5,3.2
KKHDKLHPNYPSVK [YPL019C 129-142],164,72.4,415,674,407,12.6,33.3
KKHDKLYPKYPSVK [YFL004W 130-143],184,114,61.3,435,340,37.6,16.5
KKIAKGDPKIPMQN [YNL155W 157-170],190,103,147,779,720,89.5,1
KKIIKDVPGTPSDK [YLR079W 164-177],16.7,155,65.3,3810,163,20,5.6
KKKKKNGPGAPQGY [YGR245C 314-327],159,106,23.5,329,329,56.7,20.2
